# Reference: article PMC6100724, “Proteome‐wide analysis of phospho‐regulated PDZ domain interactions” (Molecular Systems Biology, 2018)
# Square brackets hold non-standard residues; d marks the D form. Ends that are not written are not given here. * marks the point of attachment. FITC = O=C1OC2(c3ccc(O)cc3Oc3cc(O)ccc32)c2ccc(NC(=S)*)cc21; pS = N[C@@H](COP(=O)(O)O)C(=O)O
# T1: SHANK1 PDZ (human, aa 652-761) (human, UniProt Q9Y566 652-761)
# T1 construct: Shank1, human, PDZ, aa 652-761 in pETM-33; source: E. coli BL21 Gold (DE3), purified (Ni2+ Sepharose; tag removed with HRV3C protease)
# T1 sequence (looked up): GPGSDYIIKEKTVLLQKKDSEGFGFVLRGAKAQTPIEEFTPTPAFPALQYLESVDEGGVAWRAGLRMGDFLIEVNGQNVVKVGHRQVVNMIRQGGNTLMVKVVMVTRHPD
# Assays:
# Details in all cases: both partners purified
# [1] = biological target: T2, DLG1 PDZ2 (human DLG1 PDZ2 aa 311-407) (human, UniProt Q12959 311-407); assay: MST; FITC-labeled peptide fixed at 25-50 nM, DLG1 PDZ2 titrated (1:1 dilution series); 50 mM Tris-HCl pH 7.4, 0.1% Tween-20; KD from thermophoresis and T-Jump signal; n = 3
# T2 construct: Disks large homolog 1 (DLG1), human, second PDZ domain, aa 311-407, in a modified pRSET vector (Chi et al, 2009); removal of the His tag is told only for the NMR sample of Scribble PDZ1 and for SHANK1 PDZ; also called DLG PDZ2; source: E. coli BL21 Gold (DE3), purified (Ni2+ Sepharose), dialyzed into 50 mM Tris-HCl pH 7.4
# T2 sequence (Q12959 311-407): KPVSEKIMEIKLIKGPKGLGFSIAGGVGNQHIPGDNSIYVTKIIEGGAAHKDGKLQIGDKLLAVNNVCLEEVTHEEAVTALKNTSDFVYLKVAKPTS
# [2] = biological target: T3, DLG1 PDZ2 (His-tagged, aa 311-407) (human, UniProt Q12959 311-407); assay: MST; FITC-labeled peptide fixed at 25-50 nM, protein (Scribble PDZ1 or DLG1 PDZ2) in a 1:1 dilution series; 50 mM Tris-HCl pH 7.4, 0.1% Tween-20; thermophoresis and T-Jump signal; n = 3
# T3 construct: human DLG1, PDZ2, aa 311-407, in a modified pRSET vector; also called DLG PDZ2; source: E. coli BL21 Gold (DE3), purified (Ni2+ Sepharose), dialysed
# T3 sequence (Q12959 311-407): as above
# [3] = biological target: T4, Scribble PDZ1 (His-tagged, aa 719-829) (human, UniProt Q14160 719-829); assay: as above
# T4 construct: human Scribble, PDZ1, aa 719-829, in pETM-11; Used for MST and ITC; removal of the His tag is told only for the NMR samples; also called Scribble PDZ1 wild type; source: E. coli BL21 Gold (DE3), purified (Ni2+ Sepharose), dialysed
# T4 sequence (Q14160 719-829): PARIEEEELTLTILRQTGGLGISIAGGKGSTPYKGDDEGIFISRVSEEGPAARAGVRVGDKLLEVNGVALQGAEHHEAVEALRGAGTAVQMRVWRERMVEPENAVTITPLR
# [4] = biological target: T5, Scribble PDZ1 R762A/A743R (human, UniProt Q14160 719-829, R762A | A743R); assay: ITC; iTC200, 25°C, 20 mM HEPES pH 7.4; protein 50-100 μM in the cell, peptide 0.64-3 mM in the syringe; single-site fit, stoichiometry fixed to 0.8-1.1; n = 3
# T5 construct: human Scribble, PDZ1, aa 719-829, A743R introduced in the background of R762A; also called R762A/A743R mutant; source: E. coli BL21 Gold (DE3), purified (Ni2+ Sepharose), dialysed
# T5 sequence (Q14160 719-829 A743R/R762A): as the sequence (Q14160 719-829) above, with A25R, R44A counted along it
# [5] = biological target: T4, Scribble PDZ1 (His-tagged, aa 719-829); assay: as above
# [6] = biological target: T6, Scribble PDZ1 (human, aa 719-829) (human, UniProt Q14160 719-829); assay: ITC; iTC200, 25°C, 20 mM HEPES pH 7.4; protein 50-100 µM in the cell, 0.64-3 mM peptide in the syringe; single-site fit, stoichiometry fixed to 0.8-1.1; triplicate
# T6 construct: Scribble, human, PDZ1, aa 719-829 in pETM-11; The His tag was cleaved only for the NMR samples; nothing is said of cleavage for MST and ITC; also called Scribble PDZ1 wild type; source: E. coli BL21 Gold (DE3), purified (Ni2+ Sepharose)
# T6 sequence (Q14160 719-829): as the sequence (Q14160 719-829) above
# Scribble PDZ1 R762A = biological target: T7, Scribble PDZ1 R762A (human, UniProt Q14160 719-829, R762A); assay: as above
# T7 construct: Scribble, human, PDZ1, aa 719-829 in pETM-11, with R762A; source: E. coli BL21 Gold (DE3), purified (Ni2+ Sepharose)
# T7 sequence (Q14160 719-829 R762A): as the sequence (Q14160 719-829) above, with R44A counted along it
# [7] = biological target: T8, Scribble PDZ1 R762A/A743R (human, UniProt Q14160 719-829, A743R | R762A); assay: as above
# T8 construct: Scribble, human, PDZ1, aa 719-829 in pETM-11, with R762A and A743R; also called R762A/A743R mutant; source: E. coli BL21 Gold (DE3), purified (Ni2+ Sepharose)
# T8 sequence (Q14160 719-829 A743R/R762A): as the sequence (Q14160 719-829) above, with A25R, R44A counted along it
# Scribble PDZ1 K746A = biological target: T9, Scribble PDZ1 K746A (human, UniProt Q14160 719-829, K746A); assay: as above
# T9 construct: Scribble, human, PDZ1, aa 719-829 in pETM-11, with K746A; source: E. coli BL21 Gold (DE3), purified (Ni2+ Sepharose)
# T9 sequence (Q14160 719-829 K746A): as the sequence (Q14160 719-829) above, with K28A counted along it
# Scribble PDZ1 R801A = biological target: T10, Scribble PDZ1 R801A (human, UniProt Q14160 719-829, R801A); assay: as above
# T10 construct: Scribble, human, PDZ1, aa 719-829 in pETM-11, with R801A (text, methods and primers); source: E. coli BL21 Gold (DE3), purified (Ni2+ Sepharose)
# T10 sequence (Q14160 719-829 R801A): as the sequence (Q14160 719-829) above, with R83A counted along it
# Scribble PDZ1 A743R = biological target: T11, Scribble PDZ1 A743R (human, UniProt Q14160 719-829, A743R); assay: as above
# T11 construct: Scribble, human, PDZ1, aa 719-829 in pETM-11, with A743R; the text describes A743R only in the R762A background; source: E. coli BL21 Gold (DE3), purified (Ni2+ Sepharose)
# T11 sequence (Q14160 719-829 A743R): as the sequence (Q14160 719-829) above, with A25R counted along it
# [8] = biological target: T1, SHANK1 PDZ (human, aa 652-761); assay: MST; FITC-labelled peptide fixed at 25-50 nM, untagged SHANK1 PDZ titrated (1:1 dilution series); PBS, 10 mM MgCl2, 0.05% Tween-20; thermophoresis and T-Jump signal; triplicate
# [9] = biological target: T6, Scribble PDZ1 (human, aa 719-829); assay: MST; FITC-labelled peptide fixed at 25-50 nM, PDZ domain titrated (1:1 dilution series); 50 mM Tris-HCl pH 7.4, 0.1% Tween-20; thermophoresis and T-Jump signal; triplicate
# [10] = biological target: T12, DLG1 PDZ2 (human, aa 311-407) (human, UniProt Q12959 311-407); assay: as above
# T12 construct: DLG1, human, PDZ2, aa 311-407 in a modified pRSET vector; also called DLG PDZ2; source: E. coli BL21 Gold (DE3), purified (Ni2+ Sepharose)
# T12 sequence (Q12959 311-407): as the sequence (Q12959 311-407) above
binder,measurement,setting,value
"{FITC}-RLTSTRL (C-terminal peptide of human RPS6KA2 (RLTSTRL-coo-); also called RPS6KA2 Unphosphorylated; source: synthetic peptide (GeneCust)) [FITC-RLTSTRL, unphosphorylated RPS6KA2 peptide]",Kd,[1],95 µM
"{FITC}-RLT[pS]TRL (also called RPS6KA2 Phosphorylated; source: synthetic peptide (GeneCust)) [FITC-RLTpSTRL, p-3 phosphorylated RPS6KA2 peptide]",Kd,[1],72 µM
"{FITC}-RLTETRL (also called RPS6KA2 Mimetic; source: synthetic peptide (GeneCust)) [FITC-RLTETRL, phosphomimetic (p-3) RPS6KA2 peptide]",Kd,[1],14 µM
"{FITC}-KRSFIESNV (also called TANC1 Unphosphorylated; source: synthetic peptide (GeneCust)) [FITC-KRSFIESNV, unphosphorylated TANC1 peptide]",Kd,[1],2.7 µM
"{FITC}-KR[pS]FIESNV (also called TANC1 Phosphorylated; source: synthetic peptide (GeneCust)) [FITC-KRpSFIESNV, p-6 phosphorylated TANC1 peptide]",Kd,[1],6.1 µM
"{FITC}-HTNETSL (C-terminal peptide of human MCC (colorectal mutant cancer protein); also called wild-type MCC peptide; source: synthetic peptide, bought: GeneCust)",Kd,[2],6.4 µM
"{FITC}-HTNET[pS]L (C-terminal peptide of human MCC; also called pMCC; source: synthetic peptide, bought: GeneCust) [FITC-HTNETpSL (MCC peptide, phosphorylated at p-1)]",Kd,[2],57 µM
"VRKLP[pS]TTL (also: FITC label, position not given here, C-terminal tail of human RPS6KA1; also called phosphorylated RPS6KA1; source: synthetic peptide (FITC-labeled)) [FITC-labeled RPS6KA1 peptide, p-3 phosphorylated (VRKLPpSTTL)]",Kd,[3],0.39 µM
"VRKLPSTTL (also: FITC label, position not given here, C-terminal tail of human RPS6KA1; also called unphosphorylated RPS6KA1 peptide; source: synthetic peptide (FITC-labeled)) [FITC-labeled RPS6KA1 peptide, unphosphorylated (VRKLPSTTL)]",Kd,[3],1 µM
"RPHTNET[pS]L (C-terminal peptide of human MCC; also called phosphorylated MCC; source: synthetic peptide, bought: GeneCust) [RPHTNETpSL (MCC peptide, phosphorylated at p-1, unlabelled)]",binding result,[4],binds
same,fold lower KD than for the unphosphorylated peptide,[5],2 fold
"RPHTNETSL (C-terminal peptide of human MCC; also called unphosphorylated MCC; source: synthetic peptide, bought: GeneCust) [RPHTNETSL (MCC peptide, unphosphorylated, unlabelled)]",binding result,[4],binds
"MKRLTSTRL (C-terminal peptide of human RPS6KA2; also called unphosphorylated RPS6KA2; unphosphorylated ligand; source: synthetic peptide, bought: GeneCust) [MKRLTSTRL (RPS6KA2 peptide, unphosphorylated, unlabelled)]",binding result,[4],binds
"RPHTNETSL (C-terminal nine residues of MCC (colorectal mutant cancer protein), human; source: synthetic peptide, bought: GeneCust) [MCC peptide RPHTNETSL (unphosphorylated)]",Kd,[6],4.4 µM
same,Kd,Scribble PDZ1 R762A,11.3 µM
same,Kd,[7],5.8 µM
"RPHTNET[pS]L (C-terminal nine residues of MCC (colorectal mutant cancer protein), human; also called pMCC; source: synthetic peptide, bought: GeneCust) [MCC peptide RPHTNETpSL (p-1 phosphorylated)]",Kd,[6],2.6 µM
same,Kd,Scribble PDZ1 R762A,25 µM
same,Kd,[7],14 µM
"MKRLTSTRL (C-terminal nine residues of RPS6KA2, human; source: synthetic peptide, bought: GeneCust) [RPS6KA2 peptide MKRLTSTRL (unphosphorylated)]",Kd,Scribble PDZ1 K746A,10 µM
same,Kd,Scribble PDZ1 R801A,28 µM
same,Kd,Scribble PDZ1 A743R,15 µM
same,Kd,[6],18 µM
same,Kd,Scribble PDZ1 R762A,9.7 µM
same,Kd,[7],60 µM
"MKRLT[pS]TRL (C-terminal nine residues of RPS6KA2, human; also called pRPS6KA2; phospho-RPS6KA2; source: synthetic peptide, bought: GeneCust) [RPS6KA2 peptide MKRLTpSTRL (p-3 phosphorylated)]",Kd,Scribble PDZ1 K746A,10 µM
same,Kd,Scribble PDZ1 R801A,17 µM
same,Kd,Scribble PDZ1 A743R,2.8 µM
same,Kd,[6],4 µM
same,Kd,Scribble PDZ1 R762A,25 µM
same,Kd,[7],15 µM
"{FITC}-HTNETSL (C-terminal seven residues of MCC, human; source: synthetic peptide, bought: GeneCust)",Kd,[8],15 µM
same,Kd,[9],1.8 µM
"{FITC}-HTNET[pS]L (C-terminal seven residues of MCC, human; also called pMCC; source: synthetic peptide, bought: GeneCust) [FITC-HTNETpSL (MCC peptide, p-1 phosphorylated)]",Kd,[8],47 µM
same,Kd,[9],0.6 µM
"{FITC}-HTNETEL (also called Mimetic MCC; source: synthetic peptide, bought: GeneCust) [FITC-HTNETEL (MCC peptide, phosphomimetic at p-1)]",Kd,[8],52 µM
same,Kd,[10],21 µM
same,Kd,[9],1.1 µM
"{FITC}-RLTSTRL (C-terminal seven residues of RPS6KA2, human; source: synthetic peptide, bought: GeneCust) [FITC-RLTSTRL (RPS6KA2 peptide, unphosphorylated)]",Kd,[8],4.5 µM
same,Kd,[10],95 µM
same,Kd,[9],8.9 µM
"{FITC}-RLT[pS]TRL (C-terminal seven residues of RPS6KA2, human; the methods give pS at this position; also called pRPS6KA2; source: synthetic peptide, bought: GeneCust) [FITC-RLTpSTRL (RPS6KA2 peptide, p-3 phosphorylated)]",Kd,[8],16 µM
same,Kd,[10],72 µM
same,Kd,[9],1.7 µM
"{FITC}-RLTETRL (C-terminal seven residues of RPS6KA2, human, with S730E; also called Mimetic RPS6KA2; source: synthetic peptide, bought: GeneCust) [FITC-RLTETRL (RPS6KA2 peptide, phosphomimetic at p-3)]",Kd,[8],62 µM
same,Kd,[10],14 µM
same,Kd,[9],0.7 µM
"{FITC}-KRSFIESNV (C-terminal nine residues of TANC1, human; source: synthetic peptide, bought: GeneCust) [FITC-KRSFIESNV (TANC1 peptide, unphosphorylated)]",Kd,[10],2.7 µM
same,Kd,[9],42 µM
"{FITC}-KR[pS]FIESNV (C-terminal nine residues of TANC1, human; also called pTANC1; source: synthetic peptide, bought: GeneCust) [FITC-KRpSFIESNV (TANC1 peptide, p-6 phosphorylated)]",Kd,[10],6.1 µM
same,Kd,[9],101 µM
"{FITC}-KREFIESNV (also called Mimetic TANC1; source: synthetic peptide, bought: GeneCust) [FITC-KREFIESNV (TANC1 peptide, phosphomimetic at p-6)]",Kd,[10],5.1 µM
same,Kd,[9],52 µM
